What was measured:
A375 cells [1] = test: Growth inhibition assay (A375 proliferation; synergy tests); assay type: cell-based, human
Description: A375 melanoma cells (4×10^3 cells/50 μl), Mv1Lu mink lung epithelial cells (3.5×10^3 cells/50 μl), or other cell line of interest at an appropriate cell density were subcultured for four hours on flat-bottomed 96-well tissue culture plates (Costar 3596, Cambridge, Mass.) in growth medium comprising Dulbecco's modified Eagle's medium (DMEM), supplemented with 10% heat-in-activated fetal bovine serum, and P/S. Test samples to be assayed for growth inhibition were diluted in growth medium and assayed in triplicate with 50 μl of the diluted sample added to each well. The cells were incubated for 72 hours at 37° C.
The growth inhibitory activity of highly purified TGF-β1, recombinant gamma-interferon (rIFN-γ), and Oncostatin M on A375 cells was determined, and possible synergy between TGF-β1 and Oncostatin M, TGF-β1 and rIFN-γ, and Oncostatin M and rIFN-γ in inhibiting A375 proliferation was tested. […] is expressed in units of Mv1Lu growth inhibitory activity, rIFN-γ in units of anti-viral activity and Oncostatin M in units of A375 growth inhibitory activity. Concentrations of TGF-β1 (1-30 U/ml) and Oncostatin M (0.5-10 U/ml) were chosen which caused either no or only minimal growth inhibition when tested individually.

[2] = target: T1, Oncostatin M receptor on A375 or A549 cells (Homo sapiens, UniProt P40189+Q99650); test: Specificity of Oncostatin M receptor: competition for binding of 125I-Oncostatin M; details: 125I-Oncostatin M 30-50 ng/ml
T1 construct: endogenous in cells; host or cells: A375 or A549 cells (intact monolayers)
T1 sequence (Q99650 28-979): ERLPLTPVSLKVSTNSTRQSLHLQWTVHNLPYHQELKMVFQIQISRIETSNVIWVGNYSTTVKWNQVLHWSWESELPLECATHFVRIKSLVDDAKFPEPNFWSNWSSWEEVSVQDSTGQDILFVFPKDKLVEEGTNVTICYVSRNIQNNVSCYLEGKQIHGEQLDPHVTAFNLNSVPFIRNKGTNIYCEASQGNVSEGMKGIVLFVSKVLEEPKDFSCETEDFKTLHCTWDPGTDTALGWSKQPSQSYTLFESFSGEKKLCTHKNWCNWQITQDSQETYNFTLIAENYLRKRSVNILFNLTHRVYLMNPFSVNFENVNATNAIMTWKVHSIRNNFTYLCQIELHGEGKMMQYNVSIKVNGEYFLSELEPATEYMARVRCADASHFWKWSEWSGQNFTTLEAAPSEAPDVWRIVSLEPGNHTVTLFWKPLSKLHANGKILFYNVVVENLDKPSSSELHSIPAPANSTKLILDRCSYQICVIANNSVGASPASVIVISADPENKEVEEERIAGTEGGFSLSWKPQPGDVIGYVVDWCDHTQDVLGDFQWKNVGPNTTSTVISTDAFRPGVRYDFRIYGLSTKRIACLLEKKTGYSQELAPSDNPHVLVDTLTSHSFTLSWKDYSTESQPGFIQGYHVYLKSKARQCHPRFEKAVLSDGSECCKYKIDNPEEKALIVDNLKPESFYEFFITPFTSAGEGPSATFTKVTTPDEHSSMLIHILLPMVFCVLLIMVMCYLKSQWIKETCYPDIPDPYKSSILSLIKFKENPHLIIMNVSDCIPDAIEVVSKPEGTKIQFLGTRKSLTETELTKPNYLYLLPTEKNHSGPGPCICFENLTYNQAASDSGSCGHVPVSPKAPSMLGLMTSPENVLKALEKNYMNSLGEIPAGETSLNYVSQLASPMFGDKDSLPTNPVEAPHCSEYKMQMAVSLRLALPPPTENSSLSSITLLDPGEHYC
T1 sequence (P40189 23-918): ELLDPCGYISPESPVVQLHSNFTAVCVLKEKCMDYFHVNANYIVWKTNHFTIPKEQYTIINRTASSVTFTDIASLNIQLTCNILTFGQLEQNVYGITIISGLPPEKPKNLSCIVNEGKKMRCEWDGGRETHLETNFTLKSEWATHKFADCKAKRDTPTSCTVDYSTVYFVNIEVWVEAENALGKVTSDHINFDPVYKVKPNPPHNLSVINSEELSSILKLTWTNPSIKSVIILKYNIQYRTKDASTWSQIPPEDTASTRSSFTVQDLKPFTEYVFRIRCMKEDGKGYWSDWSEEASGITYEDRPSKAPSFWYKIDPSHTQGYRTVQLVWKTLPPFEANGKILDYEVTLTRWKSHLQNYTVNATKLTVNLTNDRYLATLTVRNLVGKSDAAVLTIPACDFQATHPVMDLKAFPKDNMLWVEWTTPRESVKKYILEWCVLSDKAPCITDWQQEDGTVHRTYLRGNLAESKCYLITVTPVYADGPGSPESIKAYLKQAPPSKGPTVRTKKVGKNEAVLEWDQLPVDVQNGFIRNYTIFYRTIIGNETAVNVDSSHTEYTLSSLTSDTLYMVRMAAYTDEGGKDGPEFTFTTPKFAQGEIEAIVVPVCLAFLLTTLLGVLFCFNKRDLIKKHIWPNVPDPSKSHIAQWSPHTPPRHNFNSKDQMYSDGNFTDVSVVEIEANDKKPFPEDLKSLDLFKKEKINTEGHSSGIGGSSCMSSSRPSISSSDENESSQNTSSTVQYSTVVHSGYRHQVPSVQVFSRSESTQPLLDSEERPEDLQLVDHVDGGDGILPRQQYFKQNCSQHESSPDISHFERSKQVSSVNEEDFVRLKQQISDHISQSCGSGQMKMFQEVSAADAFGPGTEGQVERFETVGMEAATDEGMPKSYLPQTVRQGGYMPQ
Description: The cell line of interest was plated in 48-well plates at a density of 2×10^5 cells/well and maintained at 37° C. for 16-24 hours before initiation of the assay. Cell monolayers were then washed once with Binding buffer (Linsley et al., Biochemistry (1986) 25:2978-2986). To measure total binding, ^125 I-Oncostatin M was added at concentrations ranging from 0.5-100 ng/ml. To measure non-specific binding, unlabeled Oncostatin M was added simultaneously with the ^125 I-Oncostatin M to replicate plates at a concentration 20- to 100-fold higher than the concentration of ^125 I-Oncostatin M. Binding was allowed to proceed for 2-5 hours at 23°, then the monolayers were washed four times with Binding Buffer, cell-bound radioactivity was solubilized with 1N NaOH and was counted in a gamma counter. Specific binding was calculated by subtracting the non-specific binding from total binding. The dissociation constant (Kd) and binding capacity was determined by Scatchard analysis (Scatchard, Ann. N.Y. Acad. Sci. (1949) 51:660).
The specificity of the Oncostatin M receptor was determined by evaluating the ability of several other polypeptide growth factors to compete for binding of ^125 I-Oncostatin M (at 30-50 ng/ml) to A375 or A549 cells.

A375 cells [3] = test: Growth inhibitory assay of recombinant Oncostatin M (crystal violet staining); assay type: cell-based, human; details: for Expression Level Units/ml (growth inhibitory activity): medium or extract of the expressing host cells (COS, CHO without methotrexate amplification, sf9); for Oncostatin M activity in medium of transfected COS cells: further test, one unit inhibits growth of A375 cells by 50%
Description: Biological activity of recombinant Oncostatin M was assessed by a growth inhibitory assay. Briefly, aliquots of extracts from transformed cells or medium from cell cultures were lyophilized with 20 μg bovine serum albumin as a carrier protein, resuspended in DMEM containing 10% fetal calf serum, and diluted serially before addition to 96-well cultures containing A375 cells (3.5×10^3 cells/well). […] Recombinant Oncostatin M was prepared using the following expression systems: E. coli, COS cells, CHO and insect cells (sf9).

TGF-β1: highly purified transforming growth factor-β1, units of Mv1Lu growth inhibitory activity
Inhibition of cell growth (A375 cells [1]; 3.4 U/ml, alone): 7%

formyl-M-L-F
Inhibitory activity towards binding of 125I-Oncostatin M ([2]; competitor 50 μM): None of these showed significant inhibitory activity

interleukin 1-β: polypeptide growth factor tested as competitor
Inhibitory activity towards binding of 125I-Oncostatin M ([2]; competitor 50 μg/ml): None of these showed significant inhibitory activity

Lys^3 bombesin
Inhibitory activity towards binding of 125I-Oncostatin M ([2]; competitor 50 μM): None of these showed significant inhibitory activity

fibroblast growth factor
Inhibitory activity towards binding of 125I-Oncostatin M ([2]; competitor 2.5 μg/ml): None of these showed significant inhibitory activity

epidermal growth factor: polypeptide growth factor tested as competitor
Inhibitory activity towards binding of 125I-Oncostatin M ([2]; competitor 2.5 μg/ml): None of these showed significant inhibitory activity

Tyr^3 -bombesin
Inhibitory activity towards binding of 125I-Oncostatin M ([2]; competitor 1 μM): None of these showed significant inhibitory activity

B1: gamma interferon: gamma-interferon; recombinant in the synergy tests (protein, UniProt P01579 24-161, looked up)
Interferon gamma: QDPYVKEAENLKKYFNAGHSDVADNGTLFLGILKNWKEESDRKIMQSQIVSFYFKLFKNFKDDQSIQKSVETIKEDMNVKFFNSNKKKRDDFEKLTNYSVTDLNVQRKAIHELIQVMAELSPAAKTGKRKRSQMLFRG
Inhibitory activity towards binding of 125I-Oncostatin M ([2]; competitor 2.5 μg/ml): None of these showed significant inhibitory activity

B2: ^125 I-Oncostatin M: Oncostatin M purified from TPA-treated U937 cells and radiolabeled with 125I by the iodogen method (protein, UniProt P13725 26-221, looked up)
Oncostatin-M: AAIGSCSKEYRVLLGQLQKQTDLMQDTSRLLDPYIRIQGLDVPKLREHCRERPGAFPSEETLRGLGRRGFLQTLNATLGCVLHRLADLEQRLPKAQDLERSGLNIEDLEKLQMARPNILGLRNNIYCMAQLLDNSDTAEPTKAGRGASQPPTPTPASDAFQRKLEGCRFLHGYHRFMHSVGRVFSKWGESPNRSRR
modifications: 125I label
notes: Oncostatin M purified from TPA-treated U937 cells and radiolabeled with 125I by the iodogen method
Original biological activity retained after iodination (A375 cells [1]; growth inhibition assays): approximately 85%

B3: pSV2βOncM/dhfr: Human Oncostatin M gene fused to βTGF leader sequence, with mouse dhfr gene (protein, UniProt P13725 26-221, looked up)
Oncostatin-M: AAIGSCSKEYRVLLGQLQKQTDLMQDTSRLLDPYIRIQGLDVPKLREHCRERPGAFPSEETLRGLGRRGFLQTLNATLGCVLHRLADLEQRLPKAQDLERSGLNIEDLEKLQMARPNILGLRNNIYCMAQLLDNSDTAEPTKAGRGASQPPTPTPASDAFQRKLEGCRFLHGYHRFMHSVGRVFSKWGESPNRSRR
modifications: expressed with TGF-beta leader sequence
Expression Level Units/ml (growth inhibitory activity) (A375 cells [3]): 10,000 GIA units/ml

B4: plasmid pH3M containing just the Oncostatin M sequences: pH3M containing Oncostatin M sequences without the fused βTGF leader sequence (protein, UniProt P13725 26-221, looked up)
Oncostatin-M: AAIGSCSKEYRVLLGQLQKQTDLMQDTSRLLDPYIRIQGLDVPKLREHCRERPGAFPSEETLRGLGRRGFLQTLNATLGCVLHRLADLEQRLPKAQDLERSGLNIEDLEKLQMARPNILGLRNNIYCMAQLLDNSDTAEPTKAGRGASQPPTPTPASDAFQRKLEGCRFLHGYHRFMHSVGRVFSKWGESPNRSRR
Oncostatin M activity in medium of transfected COS cells (A375 cells [3]): No activity was detected

B5: pAc/OncM: Oncostatin M expressed under control of the baculovirus polyhedrin gene regulators (protein, UniProt P13725 26-221, looked up)
Oncostatin-M: AAIGSCSKEYRVLLGQLQKQTDLMQDTSRLLDPYIRIQGLDVPKLREHCRERPGAFPSEETLRGLGRRGFLQTLNATLGCVLHRLADLEQRLPKAQDLERSGLNIEDLEKLQMARPNILGLRNNIYCMAQLLDNSDTAEPTKAGRGASQPPTPTPASDAFQRKLEGCRFLHGYHRFMHSVGRVFSKWGESPNRSRR
modifications: baculovirus-expressed
notes: Oncostatin M expressed under control of the baculovirus polyhedrin gene regulators
Expression Level Units/ml (growth inhibitory activity) (A375 cells [3]): 1,800 GIA units/ml

B6: pH3M/βOncM: Oncostatin M with βTGF leader sequence fused to the coding sequence, secreted into medium (protein, UniProt P13725 26-221, looked up)
Oncostatin-M: AAIGSCSKEYRVLLGQLQKQTDLMQDTSRLLDPYIRIQGLDVPKLREHCRERPGAFPSEETLRGLGRRGFLQTLNATLGCVLHRLADLEQRLPKAQDLERSGLNIEDLEKLQMARPNILGLRNNIYCMAQLLDNSDTAEPTKAGRGASQPPTPTPASDAFQRKLEGCRFLHGYHRFMHSVGRVFSKWGESPNRSRR
modifications: expressed with TGF-beta leader sequence
Sp. Act (A375 cells [3]; E. coli fusion proteins purified and refolded before testing): > 10,000 GIA units/ug protein
Oncostatin M activity in medium of transfected COS cells (A375 cells [3]): approximately 18,000 units/ml
Expression Level Units/ml (growth inhibitory activity) (A375 cells [3]): 56,000 GIA units/ml

Reference: patent publication US5451506A, “Oncostatin M and novel compositions having anti-neoplastic activity” (Oncogen Limited Partnership, priority 1993, dated 1995)
